Test results reported in patent US20240058465A1 (SUTRO BIOPHARMA, published 2024).
Changes are numbered by the printed parent chain. Values belong to the binder of their own block, whether it stands above or below them.

Key:
human ROR1-ECD = biological target: T1, human ROR1-ECD (human, UniProt Q01973 30-406); experiment: SPR (Biacore), antibody captured by anti-Fc, human ROR1-ECD analyte
T1 construct: Bought protein; also called hROR1; ROR1-extracellular domain
Description: Anti-Fc polyclonal antibodies were immobilized onto a CMS chip (GE Life Sciences) using amine coupling chemistry (from Amine Coupling Kit, GE Life Sciences). The immobilization steps were carried out at a flow rate of 25 μL/min in 1×HBS-EP+buffer (GE Life Sciences; 10× Stock diluted before use). The sensor surfaces were activated for 7 min with a mixture of NHS (0.05 M) and EDC (0.2 M). The Anti-Fc antibodies were injected over all 4 flow cells at a concentration of 25 ug/ml in 10 mM sodium acetate, pH 4.5, for 7 min. Ethanolamine (1 M, pH 8.5) was injected for 7 min to block any remaining activated groups.
Off-rate and kinetic binding experiments were performed at 25° C. using 1×HBS-EP+buffer. Test and control antibodies were injected over the anti-Fc surface at concentrations of 5-10 μg/mL for 12 seconds at a flow rate of 10 μL/min on flow cells 2, 3 and 4, followed by a buffer wash for 30 seconds at the same flow rate. […] After capturing ligand (antibody) on the anti-Fc surface, the analyte (hROR1, Fz or Kr domains, Acro Biosystems, Delaware) was bound for 180 seconds, followed by a 600 second dissociation phase at a flow rate of 50 μL/min. Between each ligand capture and analyte binding cycle, regeneration was carried out using 2 injections of 10 mM Glycine pH 2.0 for 30 seconds at 30 μL/min, followed by a 30 second buffer wash step.

[1] = biological target: T2, human ROR1 (hROR1) expressed on cells (human, UniProt Q01973 30-937); experiment: flow cytometry, HCT116-hROR1 cells
T2 construct: Mino cells are the target positive cells of the killing assay; also called receptor tyrosine kinase like orphan receptor 1; HCT 116-hROR1

human ROR1 (hROR1) = biological target: T3, human ROR1 (hROR1) (human, UniProt Q01973 30-937); experiment: flow cytometry, HCT116-hROR1 cells
T3 construct: On HCT116-hROR1 transfectants, Mino cells or Ntera-2 cells, as the assay of each row says; also called receptor tyrosine kinase like orphan receptor 1

[2] = biological target: T4, human ROR1 Frizzled domain (hROR1-Fz) (human, UniProt Q01973 165-305); experiment: SPR Biacore, IgG on anti-Fc, ROR1-Fz analyte
T4 construct: Acro Biosystems, made in HEK293
In short: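 Test antibodies captured on an anti-Fc surface (CM5 chip), then analyte bound for 180 s with 600 s dissociation at 25° C in HBS-EP+ buffer at 50 μL/min. Human ROR1 ECD, Frizzled or Kringle domain used as analyte; regeneration with 10 mM glycine pH 2.0.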

Kd (human ROR1-ECD): 0.369 nM
koff (human ROR1-ECD): 0.00031 s⁻¹
kon (human ROR1-ECD): 840000 M⁻¹ s⁻¹
Bmax (MFI) [1]: 10600 MFI
Kd [1]: 0.05 nM
B1: SRP2188-E05 (antibody, IgG1, V domains shown)
VH: EVQLVESGGGLVQPGGSLRLSCAASGFNISDYDIHWVRQAPGKGLEWVAGIEPWDGSTDHADSVKGRFTISADTSKNTAYLQMNSLRAEDTAVYYCARDYGVFDYWGQGTLVTVSS
VL: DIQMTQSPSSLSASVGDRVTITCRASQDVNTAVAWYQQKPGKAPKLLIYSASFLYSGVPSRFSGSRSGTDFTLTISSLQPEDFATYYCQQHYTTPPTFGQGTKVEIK
notes: IgG1 with trastuzumab LC; HIS- and FLAG-tagged; cell-free expressed

Kd (human ROR1-ECD): 0.139 nM
koff (human ROR1-ECD): 0.000101 s⁻¹
kon (human ROR1-ECD): 723000 M⁻¹ s⁻¹
Bmax (MFI) [1]: 9500 MFI
Kd [1]: 0.03 nM
B2: SRP2188-C04 (antibody, IgG1, V domains shown)
VH: B1 VH with S30N, D31S, A49G, G50W, E52N, W54E, S57D, D59Y, K65R, F103Y
VL: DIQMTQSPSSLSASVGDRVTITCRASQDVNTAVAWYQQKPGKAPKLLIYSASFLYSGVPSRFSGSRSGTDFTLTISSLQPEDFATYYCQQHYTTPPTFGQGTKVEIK
notes: as for B1

Kd (human ROR1-ECD): 0.427 nM
koff (human ROR1-ECD): 0.000453 s⁻¹
kon (human ROR1-ECD): 1.06e+06 M⁻¹ s⁻¹
Bmax (MFI) [1]: 9510 MFI
Kd [1]: 0.06 nM
B3: SRP2188-C05 (antibody, IgG1, V domains shown)
VH: B1 VH with S30N, D31S, Y32F, A49G, E52D, W54R, H60S
VL: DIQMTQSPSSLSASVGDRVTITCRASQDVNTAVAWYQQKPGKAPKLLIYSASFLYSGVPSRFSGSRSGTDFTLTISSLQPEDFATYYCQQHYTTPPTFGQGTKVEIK
notes: as for B1

Kd (human ROR1-ECD): 0.399 nM
koff (human ROR1-ECD): 0.000399 s⁻¹
kon (human ROR1-ECD): 1e+06 M⁻¹ s⁻¹
Bmax (MFI) [1]: 8480 MFI
Kd [1]: 0.03 nM
B4: SRP2188-F10 (antibody, IgG1, V domains shown)
VH: B1 VH with D31V, Y32F, A49G, E52D, W54N, S57A
VL: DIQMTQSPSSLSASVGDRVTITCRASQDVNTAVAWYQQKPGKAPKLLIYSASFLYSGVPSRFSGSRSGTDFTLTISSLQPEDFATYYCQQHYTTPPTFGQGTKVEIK
notes: as for B1

Bmax (MFI) [1]: 9760 MFI
Kd [1]: 0.03 nM
B5: SRP2188-B02 (antibody, IgG1, V domains shown)
VH: B1 VH with D31S, A49G, G50W, E52N, W54D, S57D, D59Y, H60L, N77S
VL: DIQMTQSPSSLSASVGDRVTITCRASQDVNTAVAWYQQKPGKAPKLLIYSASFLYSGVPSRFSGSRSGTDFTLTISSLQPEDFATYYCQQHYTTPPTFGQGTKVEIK
notes: as for B1

Kd (human ROR1-ECD): 0.504 nM
koff (human ROR1-ECD): 0.000467 s⁻¹
kon (human ROR1-ECD): 927000 M⁻¹ s⁻¹
Bmax (MFI) [1]: 9130 MFI
Kd [1]: 0.06 nM
B6: SRP2188-B06 (antibody, IgG1, V domains shown)
VH: B1 VH with S30H, D31S, K43E, A49G, G50W, E52N, W54D, S57D, D59Y
VL: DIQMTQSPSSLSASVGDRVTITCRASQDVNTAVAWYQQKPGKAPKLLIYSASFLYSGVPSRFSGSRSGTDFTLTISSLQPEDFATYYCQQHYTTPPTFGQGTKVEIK
notes: as for B1

Kd (human ROR1-ECD): 0.462 nM
koff (human ROR1-ECD): 0.000539 s⁻¹
kon (human ROR1-ECD): 1.17e+06 M⁻¹ s⁻¹
Bmax (MFI) [1]: 9000 MFI
Kd [1]: 0.04 nM
B7: SRP2188-B10 (antibody, IgG1, V domains shown)
VH: B1 VH with S30N, D31S, A49G, G50W, E52N, W54H, S57D, D59Y
VL: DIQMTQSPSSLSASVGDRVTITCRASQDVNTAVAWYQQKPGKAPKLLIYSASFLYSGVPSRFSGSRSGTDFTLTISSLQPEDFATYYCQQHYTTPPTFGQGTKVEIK
notes: as for B1

Kd (human ROR1-ECD): 0.741 nM
koff (human ROR1-ECD): 0.00055 s⁻¹
kon (human ROR1-ECD): 743000 M⁻¹ s⁻¹
Bmax (MFI) [1]: 9600 MFI
Kd [1]: 0.02 nM
B8: SRP2188-D11 (antibody, IgG1, V domains shown)
VH: B1 VH with P14T, S30R, A49G, G50L, E52D, W54D, H60E
VL: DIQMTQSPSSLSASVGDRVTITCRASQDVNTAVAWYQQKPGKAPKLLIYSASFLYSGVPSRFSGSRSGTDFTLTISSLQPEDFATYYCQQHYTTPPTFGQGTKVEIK
notes: as for B1

Kd (human ROR1-ECD): 0.873 nM
koff (human ROR1-ECD): 0.000617 s⁻¹
kon (human ROR1-ECD): 707000 M⁻¹ s⁻¹
Bmax (MFI) [1]: 9210 MFI
Kd [1]: 0.04 nM
B9: SRP2188-C11 (antibody, IgG1, V domains shown)
VH: B1 VH with S30K, D31S, A49G, G50W, E52N, W54D, S57D, D59Y, H60L
VL: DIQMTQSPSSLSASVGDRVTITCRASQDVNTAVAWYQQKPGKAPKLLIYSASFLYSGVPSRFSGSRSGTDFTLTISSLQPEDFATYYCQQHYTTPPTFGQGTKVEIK
notes: as for B1

Bmax (MFI) [1]: 9780 MFI
Kd [1]: 0.02 nM
B10: SRP2188-E09 (antibody, IgG1, V domains shown)
VH: B1 VH with Y32F, G50E, E52D, W54Q, S57W, D59V
VL: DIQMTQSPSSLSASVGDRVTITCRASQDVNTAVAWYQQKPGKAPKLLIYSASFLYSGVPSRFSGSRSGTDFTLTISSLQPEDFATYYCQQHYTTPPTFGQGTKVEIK
notes: as for B1

Bmax (MFI) [1]: 9850 MFI
Kd [1]: 0.03 nM
B11: SRP2188-F02 (antibody, IgG1, V domains shown)
VH: B1 VH with G50W, E52D, W54S, D59E, N84S
VL: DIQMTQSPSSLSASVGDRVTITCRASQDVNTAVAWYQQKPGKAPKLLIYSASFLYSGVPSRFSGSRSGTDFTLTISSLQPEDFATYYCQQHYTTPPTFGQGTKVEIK
notes: as for B1

Kd (human ROR1-ECD): 0.657 nM
koff (human ROR1-ECD): 0.000579 s⁻¹
kon (human ROR1-ECD): 882000 M⁻¹ s⁻¹
Bmax (MFI) [1]: 9420 MFI
Kd [1]: 0.05 nM
B12: SRP2188-B09 (antibody, IgG1, V domains shown)
VH: B1 VH with S30N, D31S, A49G, G50V, E52D, W54K, S57W, A88T
VL: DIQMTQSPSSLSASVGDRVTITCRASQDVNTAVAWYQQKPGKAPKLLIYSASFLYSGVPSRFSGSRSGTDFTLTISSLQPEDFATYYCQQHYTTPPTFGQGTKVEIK
notes: as for B1

Bmax (MFI) [1]: 9310 MFI
Kd [1]: 0.05 nM
B13: SRP2188-C10 (antibody, IgG1, V domains shown)
VH: B1 VH with S30N, D31S, A49G, G50W, E52N, W54D, S57D, D59Y
VL: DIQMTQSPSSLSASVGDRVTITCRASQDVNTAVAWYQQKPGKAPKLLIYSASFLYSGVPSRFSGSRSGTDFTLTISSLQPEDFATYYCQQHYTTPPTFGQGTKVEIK
notes: as for B1

Kd (human ROR1-ECD): 0.426 nM
koff (human ROR1-ECD): 0.000222 s⁻¹
kon (human ROR1-ECD): 522000 M⁻¹ s⁻¹
Bmax (MFI) [1]: 9150 MFI
Kd [1]: 0.03 nM
B14: SRP2188-A10 (antibody, IgG1, V domains shown)
VH: B1 VH with S30N, D31S, A49G, G50W, E52N, W54E, S57D, D59S
VL: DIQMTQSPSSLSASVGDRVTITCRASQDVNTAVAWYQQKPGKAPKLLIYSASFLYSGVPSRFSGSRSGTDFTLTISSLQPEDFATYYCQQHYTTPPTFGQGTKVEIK
notes: as for B1

Bmax (MFI) (human ROR1 (hROR1)): 13800 MFI
Kd (human ROR1 (hROR1)): 0.5 nM
Kd [2]: 5.35 nM
koff [2]: 0.000704 s⁻¹
kon [2]: 131000 M⁻¹ s⁻¹
B15: SRP2196-C04 (antibody, V domains shown)
VH: EVQLVESGGGLVQPGGSLRLSCAASGFNITGYYIHWVRQAPGKGLEWVGFIAPLSGSTHNADSVKGRFTISADTSKNTAYLQMNSLRAEDTAVYYCARESRRYVNPWDYWGQGTLVTVSS
VL: QAVVTQESALTTSPGETVTLTCRSSTGAVTTSNYANWVQEKPDHLFTGLIGGTNKRAPGVPARFSGSLIGDKAALTITGAQTEDEAIYFCALWYSNLWVFGGGTKLTVL
notes: His/FLAG-tagged IgG1; also called Antibody 162

Bmax (MFI) (human ROR1 (hROR1)): 14600 MFI
Kd (human ROR1 (hROR1)): 0.2 nM
Kd [2]: 3.79 nM
koff [2]: 0.000568 s⁻¹
kon [2]: 150000 M⁻¹ s⁻¹
B16: SRP2196-A09 (antibody, V domains shown)
VH: B15 VH with F50Q, A52S, L54N, S57A, N60Y, E99D, V104I, N105R, P106S
VL: B15 VL
notes: His/FLAG-tagged IgG1

Bmax (MFI) (human ROR1 (hROR1)): 13200 MFI
Kd (human ROR1 (hROR1)): 0.1 nM
Kd [2]: 14.3 nM
koff [2]: 0.0085 s⁻¹
kon [2]: 597000 M⁻¹ s⁻¹
B17: SRP1944-A07 w SP34 LC3 (antibody, V domains shown)
VH: B15 VH with F50Y, A52S, L54N, H59Y, N60Y, E99D, N105R, W107F
VL: QTVVTQEPSLTVSPGGTVTLTCGSSTGAVTSGYYPNWFQQKPGQAPRGLIGGTKFLAPGTPARFSGSLLGGKAALTLSGVQPEDEAEYYCALWYSNRWVFGGGTQLTVTG
notes: Parent of SRP2196; IgG
